B1: BDNF: brain-derived neurotrophic factor (Promega), neurotrophic protein (protein, UniProt P23560 129-247, looked up)
Neurotrophic factor BDNF: HSDPARRGELSVCDSISEWVTAADKKTAVDMSGGTVTVLEKVPVSKGQLKQYFYETKCNPMGYTKEGCRGIDKRHWNSQCRTTQSYVRALTMDSKKRIGWRFIRIDTSCVCTLTIKRGR
modifications: Neurotrophic factor BDNF
notes: brain-derived neurotrophic factor (Promega), neurotrophic protein

System: second trimester human fetal neuroglial cultures
Assay: Second trimester human fetal neuroglial cultures treated with FK506 and/or BDNF; MAP-2/GFAP immunostaining and propidium iodide cell counts by laser confocal microscopy
Assay type: cell-based
Protocol: Surgical pathology fetal specimens were collected and processed in accordance with the University of Pittsburgh Human Tissue Committee guidelines. Human telencephalic tissues (18-21 weeks of gestation) were collected and placed in DMEM medium (Life Technologies Inc., Grand Island, N.Y.). […] Tissue processing followed a modified mouse brain dissociation protocol. Within 1 hour of collection, the brain material was placed in Ca^++-and Mg^++-free DPBS (Life Technologies), cleaned of meninges, rinsed and minced. Tissue fragments were incubated in 0.05% trypsin-EDTA with additives (Life Technologies) for 5 min at 37° C. and further dissociated. Trypsin inhibitor (10 mg/ml; Sigma, St. Louis, Mo.) was subsequently added, followed by centrifugation for 5 min at 250×g. After filtering through 70 μm nylon-mesh cell strainers (Becton Dickinson, Franklin Lakes, N.J.), the cell suspension was cleaned by gradient centrifugation through an 8% BSA (Sigma) layer (250×g, 10 min). A second filtering was performed using 70 μm and 40 μm nylon-mesh cell strainers (Becton Dickinson). The single cell suspension was counted on a hemocytometer using trypan blue exclusion, brought to a final density of 10^6 cells/ml and plated on poly-l-ornithine (Sigma) and laminin (Life Technologies) coated 12 mm glass coverslips (Fisher, Pittsburgh, PA) on 24-well plates (Becton Dickinson).
Throughout the experiments standard tissue culture techniques were used, in combination with the drug protocol. More specifically, cultures were incubated in 10% CO2 at 37° C. and fed every other day for 1, 5, 12, or 21 days with fresh NPMM (Bio Whittaker, San Diego, Calif.), followed by NPMM with or without various concentrations of FK506 (provided by Dr. A. Zeevi) and/or BDNF (5 ng/ml, Promega, Madison, Wis.).
In an attempt to identify the cell phenotype that is most affected by different treatments, the neuroglial cultures were immunostained for the neuronal marker MAP-2 and the astrocytic marker GFAP. After 7 days of treatment, cultures were washed with PBS and PBS with 0.05% Tween 20 (Sigma), fixed with 4% paraformaldehyde for 30 min and then incubated for 30 min with PBS with 0.2% BSA and 0.1% Triton X (Sigma). Without washing, cultures were incubated overnight at 4° C. with the primary antibodies mouse anti-MAP-2(1:500, Stemberger Monoclonals Inc., Baltimore, Md.) and rabbit anti-GFAP (1:100, Dako, Capinteria, Calif.). After thorough washing with PBS+0.05% Tween 20, a secondary antibody (FITC-conjugated goat anti- mouse and FITC- conjugated goat anti- rabbit) was applied for 2 hours (1:200, Jackson Immuno, West Grove, Pa.). All antibodies were diluted in common antibody diluent (ScyTek, Logan, Utah). RNase A (10 μg/ml; Sigma) was added during the secondary antibody incubation (20 min), followed by the nuclear stain propidium iodide (5 μg/ml, Sigma). Propidium iodide was used to allow quantification of cell numbers for each treatment condition, using LCM and ImageSpace software as described below. Coverslips were then washed and mounted on glass slides (Fisher) using gelvatol fluorescence mounting medium.
A quantitative assessment of the results (i.e., the numbers of cell nuclei stained with propidium iodide and areas covered by immunofluorescent marker staining) using laser confocal microscopy and ImageSpace software (Molecular Dynamics, Sunnyvale, Calif.) was carried out as follows: six randomly chosen fields were analyzed per coverslip (well). The Argon/Krypton laser confocal microscope 40× objective with oil immersion lens (Model 2001, Molecular Dynamics) was used. Images of 512×512 pixels were collected at a pixel size of […]. Vertical sections were acquired in order to define vertical borders for the collection of Z-series. The step size between adjacent sections was […]. FITC was excited with a wavelength of 488 nm and collected with a 530DF30 filter. Propidium iodide was excited with a wavelength of 568 nm and collected with a 590DFLP filter. […]

Row | Molecule | toxic effects (higher concentrations of FK506) | neurite outgrowth / neuronal processes extension | enhancement of neuronal differentiation (5 ng/ml, 7 days of treatment) | MAP-2 surface/cell number ratio (5 ng/ml, 7 days of treatment starting at DIC 12, vs control) | GFAP surface/cell number ratio (GFAP expression) (7 days of treatment, vs control) | number of neurons (BDNF: NeuN immunostaining, unpublished observations)
1 | C=CC[C@@H]1/C=C(\C)C[C@H](C)C[C@H](OC)[C@H]2O[C@@](O)(C(=O)C(=O)N3CCCC[C@H]3C(=O)O[C@H](/C(C)=C/[C@@H]3CC[C@@H](O)[C@H](OC)C3)[C@H](C)[C@@H](O)CC1=O)[C@H](C)C[C@@H]2OC [FK506, reference compound] | did not appear to exert toxic effects |  |  |  |  | 
2 | B1 |  | tends to increase | not significant | not significantly different from control | decreased | modestly increasing
